Data published in article PMC7005674.

Target: T1, Rap1-Halo (Saccharomyces cerevisiae) (UniProt P11938)
T1 sequence: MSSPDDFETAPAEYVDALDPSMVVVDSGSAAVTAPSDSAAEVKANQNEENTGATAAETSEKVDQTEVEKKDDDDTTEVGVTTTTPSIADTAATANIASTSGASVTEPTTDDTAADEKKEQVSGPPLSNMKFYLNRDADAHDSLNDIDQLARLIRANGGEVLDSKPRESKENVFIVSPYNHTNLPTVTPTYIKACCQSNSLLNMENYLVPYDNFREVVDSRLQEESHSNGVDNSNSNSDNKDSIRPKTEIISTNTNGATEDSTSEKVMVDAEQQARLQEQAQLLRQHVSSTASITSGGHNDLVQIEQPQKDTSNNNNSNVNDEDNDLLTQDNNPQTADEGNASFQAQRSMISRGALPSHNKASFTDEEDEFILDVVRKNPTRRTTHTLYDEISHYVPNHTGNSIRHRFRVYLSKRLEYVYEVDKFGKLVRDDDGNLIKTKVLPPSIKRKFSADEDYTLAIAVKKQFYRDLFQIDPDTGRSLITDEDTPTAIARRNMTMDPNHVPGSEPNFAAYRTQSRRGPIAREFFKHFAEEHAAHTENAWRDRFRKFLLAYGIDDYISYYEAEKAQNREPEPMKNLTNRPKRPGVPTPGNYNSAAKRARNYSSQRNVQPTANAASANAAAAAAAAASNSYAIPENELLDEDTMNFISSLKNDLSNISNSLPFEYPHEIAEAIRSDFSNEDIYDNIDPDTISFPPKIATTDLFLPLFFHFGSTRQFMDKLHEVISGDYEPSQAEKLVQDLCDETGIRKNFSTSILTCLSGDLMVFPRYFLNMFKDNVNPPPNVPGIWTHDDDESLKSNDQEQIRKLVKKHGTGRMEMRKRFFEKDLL
Assay: EMSA
Settings: EMSA (DNA): 50 mM HEPES pH 7.5, 130 mM KCl, 10% glycerol, 0.005% Tween 20, 2 mM Trolox, 3.2% glucose, 50 ng/ul poly-d(I-C), 10 min, room temperature; smTIRF …

## CACACTGTGCCAAGTACTTACGCGGCCGCCCTGGAGAATCCCGGTGCCGTACATCTGTGCACCGTCGTAGACAGCTCTAGCACCGCTTAAACGCACGTACGCGCTGTCCCCCGCGTTTTAACCGCCAAGGGGATTACTCCCTAGTCTCCAGGCACGTGTCAGATACTGCAGAGATCTCTAGATCCATGGAGTACTTGGTCTCAAACC (double strand) [MN S1]
  Kd: 76.4 nM

## CACACTGTGCCAAGTACTTACGCGGCCGCCCTGGAGAATCCCGGTGCCGAGGTACATCTGTGCACCGTAGACAGCTCTAGCACCGCTTAAACGCACGTACGCGCTGTCCCCCGCGTTTTAACCGCCAAGGGGATTACTCCCTAGTCTCCAGGCACGTGTCAGATACTGCAGAGATCTCTAGATCCATGGAGTACTTGGTCTCAAACC (double strand) [MN S1+3]
  Kd: 48.5 nM

## CACACTGTGCCAAGTACTTACGCGGCCGCCCTGGAGAATCCCGGTGCCGAGGCCGTACATCTGTGCACCGACAGCTCTAGCACCGCTTAAACGCACGTACGCGCTGTCCCCCGCGTTTTAACCGCCAAGGGGATTACTCCCTAGTCTCCAGGCACGTGTCAGATACTGCAGAGATCTCTAGATCCATGGAGTACTTGGTCTCAAACC (double strand) [MN S1+6]
  Kd: 62.7 nM
